Reference: PMC4288183

Legend:
[1] = target: T1, MNV RdRp (NS7) WT (Murine norovirus 1 strain CW1) (UniProt Q80J95); experiment: fluorescence polarization competition; conditions: FP: 10 mM Tris-HCl pH 8.0, 30 mM NaCl, 1% glycerol, 0.5 mM 2-mercaptoethanol, 0.1 uM fMps, temperature not stated; synthesis competition: 20 mM Na glutamate pH …
T1 sequence: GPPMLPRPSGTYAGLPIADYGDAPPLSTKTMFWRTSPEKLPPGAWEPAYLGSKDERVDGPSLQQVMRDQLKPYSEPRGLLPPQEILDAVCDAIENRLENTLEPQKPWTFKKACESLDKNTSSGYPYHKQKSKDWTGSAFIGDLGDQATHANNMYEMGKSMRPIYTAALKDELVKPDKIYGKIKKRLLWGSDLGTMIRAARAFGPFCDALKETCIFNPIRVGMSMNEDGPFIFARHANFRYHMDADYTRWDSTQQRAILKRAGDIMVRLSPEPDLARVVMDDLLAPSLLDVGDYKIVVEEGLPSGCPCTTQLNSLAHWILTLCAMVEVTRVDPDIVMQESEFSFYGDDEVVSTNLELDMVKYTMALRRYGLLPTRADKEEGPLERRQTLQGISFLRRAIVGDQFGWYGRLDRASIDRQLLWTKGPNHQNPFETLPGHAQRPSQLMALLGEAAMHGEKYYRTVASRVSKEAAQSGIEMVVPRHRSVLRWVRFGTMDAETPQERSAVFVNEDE

[2] = target: T1, MNV RdRp (NS7) WT (Murine norovirus 1 strain CW1); experiment: fluorescence polarization; conditions: FP: 10 mM Tris-HCl pH 8.0, 30 mM NaCl, 1% glycerol, 0.5 mM 2-mercaptoethanol, 0.1 uM fMps, temperature not stated; synthesis competition: 20 mM Na glutamate pH …

Sequence | IC50 [1] [nM] | Ki [1] [nM] | Kd [2] [nM]
CUGCUGAGCGUUCCUGCGGGGUCUCAGCAU [Mhp (hairpin of Mps; also printed Mph)] | 16200 | 6300 | 
GCGUCAUUCACAAAGACUGCUGAGCGUUCCUGCGGGGUCUCAGCAUCCAUU [fMps (6-FAM MNV subgenomic proscript)] |  |  | 500
GCGUCAUUCACAAAGACUGCUGAGCGUUCCUGCGGGGUCUCAGCAUCCAUU [Mps (MNV subgenomic proscript)] | 2360 | 680 | 
